Experimental data published in PMC3196576, “Probing the Functional Mechanism of Escherichia coli GroEL Using Circular Permutation” (PLoS ONE, 2011).

Key:
[1] = target: T1, GroEL R231W (E. coli, UniProt P0A6F5 1-548, R231W); test: Proteinase K protection of BeFx football complexes, recovered by centrifugal concentration (100 kDa cutoff), SDS-PAGE; 0.5 µM GroEL 14-mer, 1.0 µM unfolded rhodanese, 1.1 µM GroES, 1 mM BeCl2, 10 mM NaF, 1 mM ATP; 30 mM Tris-HCl pH 7.2, 50 mM KCl, 10 mM Mg(CH3COO)2, 25°C; 1 µg/ml Proteinase K for 30 min; conditions: both partners purified
T1 construct: GroEL, Escherichia coli, with Arg231 replaced by tryptophan; also called RW; source: purified according to the protocol of Machida et al. [34]; copies: 14

[2] = target: the molecule itself; test: SEC; gel filtration profiles observed during purification (AKTA FPLC, 4°C); data not shown

Row | Binder | binding result [1] | stoichiometry N [2]
1 | bovine rhodanese (enzyme, UniProt P00586 1-297, looked up, rhodanese (thiosulfate sulfurtransferase), bovine; Unfolded for 1 hr in 6 M guanidine hydrochloride at 25°C before it was added to GroEL; also called unfolded rhodanese; source: bought: Sigma) MVHQVLYRALVSTKWLAESVRAGKVGPGLRVLDASWYSPGTREARKEYLERHVPGASFFDIEECRDKASPYEVMLPSEAGFADYVGSLGISNDTHVVVYDGDDLGSFYAPRVWWMFRVFGHRTVSVLNGGFRNWLKEGHPVTSEPSRPEPAIFKATLNRSLLKTYEQVLENLESKRFQLVDSRAQGRYLGTQPEPDAVGLDSGHIRGSVNMPFMNFLTEDGFEKSPEELRAMFEAKKVDLTKPLIATCRKGVTACHIALAAYLCGKPDVAIYDGSWFEWFHRAPPETWVSQGKGGKA | binds | 
2 | GroES (natural protein, E. coli, UniProt P0A6F9 1-97, looked up, GroES cochaperonin, Escherichia coli; 7-mer; also called cochaperonin GroES; co-chaperonin; source: purified according to Iwasa et al. [35], with an 80°C heat treatment) MNIRPLHDRVIVKRKEVETKSAGGIVLTGSAAAKSTRGEVLAVGNGRILENGEVKPLDVKVGDIVIFNDGYGVKSEKIDNEEVLIMSESDILAIVEA | binds | 
3 | GroEL CP209 (other, E. coli, start methionine from the vector-derived ATG; GroEL, E. coli, from Glu209 to the original C-terminus; Val-Asp dipeptide linker (SalI site) joining the original C- and N-termini; GroEL, E. coli, from the original N-terminus minus the N-terminal methionine to Pro208; Circular permutant; source: E. coli JM109, purified (protocol of Machida et al. [34]); copies: 14) METGAVELESPFILLADKKISNIREMLPVLEAVAKAGKPLLIIAEDVEGEALATLVVNTMRGIVKVAAVKAPGFGDRRKAMLQDIATLTGGTVISEEIGMELEKATLEDLGQAKRVVINKDTTTIIDGVGEEAAIQGRVAQIRQQIEEATSDYDREKLQERVAKLAGGVAVIKVGAATEVEMKEKKARVEDALHATRAAVEEGVVAGGGVALIRVASKLADLRGQNEDQNVGIKVALRAMEAPLRQIVLNCGEEPSVVANTVKGGDGNYGYNAATEEYGNMIDMGILDPTKVTRSALQYAASVAGLMITTECMVTDLPKNDAADLGAAGGMGGMGGMGGMMVDAAKDVKFGNDARVKMLRGVNVLADAVKVTLGPKGRNVVLDKSFGAPTITKDGVSVAREIELEDKFENMGAQMVKEVASKANDAAGDGTTTATVLAQAIITEGLKAVAAGMNPMDLKRGIDKAVTAAVEELKALSVPCSDSKAIAQVGTISANSDETVGKLIAEAMDKVGKEGVITVEDGTGLQDELDVVEGMQFDRGYLSPYFINKP |  | ~14
4 | GroEL CP254 (other, E. coli, start methionine and extraneous N-terminal residues (Met-Ala-Ala-Ala-Gln-Tyr); GroEL, E. coli, from Val254 to the original C-terminus; Val-Asp dipeptide linker (SalI site) joining the original C- and N-termini; GroEL, E. coli, from the original N-terminus minus the N-terminal methionine to Asp253 (Ala251-Glu252-Asp253); C-terminal residues after Asp253 (Val-Ala-Asn); Circular permutant; source: …) MAAAQYVEGEALATLVVNTMRGIVKVAAVKAPGFGDRRKAMLQDIATLTGGTVISEEIGMELEKATLEDLGQAKRVVINKDTTTIIDGVGEEAAIQGRVAQIRQQIEEATSDYDREKLQERVAKLAGGVAVIKVGAATEVEMKEKKARVEDALHATRAAVEEGVVAGGGVALIRVASKLADLRGQNEDQNVGIKVALRAMEAPLRQIVLNCGEEPSVVANTVKGGDGNYGYNAATEEYGNMIDMGILDPTKVTRSALQYAASVAGLMITTECMVTDLPKNDAADLGAAGGMGGMGGMGGMMVDAAKDVKFGNDARVKMLRGVNVLADAVKVTLGPKGRNVVLDKSFGAPTITKDGVSVAREIELEDKFENMGAQMVKEVASKANDAAGDGTTTATVLAQAIITEGLKAVAAGMNPMDLKRGIDKAVTAAVEELKALSVPCSDSKAIAQVGTISANSDETVGKLIAEAMDKVGKEGVITVEDGTGLQDELDVVEGMQFDRGYLSPYFINKPETGAVELESPFILLADKKISNIREMLPVLEAVAKAGKPLLIIAEDVAN |  | ~14
